Source: paper PMC10201424, “Biochemical characterisation of Mer3 helicase interactions and the protection of meiotic recombination intermediates” (Nucleic Acids Research, 2022)
Each block holds one binder with its values, some of them ahead of it.

Legend:
Details in all cases: both partners purified
[1] = target: T1, Top3/Rmi1 complex (as used in MST and XL-MS) (S. cerevisiae, UniProt P13099 1-656; Q02685 1-241); assay: MST; 30 nM RED-NHS labelled Sgs1(1–605), Top3–Rmi1 titrated; 50 mM Tris–HCl pH 7.4, 150 mM NaCl, 10 mM MgCl2, 0.05% Tween-20; 25°C; triplicates
T1 construct: Top3 (type IA topoisomerase), S. cerevisiae, from SK1 strain genomic DNA; untagged; Rmi1, S. cerevisiae, from SK1 strain genomic DNA; The methods describe a GST-tagged and an untagged (3C protease cleaved) preparation; source: Hi5 insect cells (co-expressed from pBIG1a), purified
T1 sequence (looked up) 1: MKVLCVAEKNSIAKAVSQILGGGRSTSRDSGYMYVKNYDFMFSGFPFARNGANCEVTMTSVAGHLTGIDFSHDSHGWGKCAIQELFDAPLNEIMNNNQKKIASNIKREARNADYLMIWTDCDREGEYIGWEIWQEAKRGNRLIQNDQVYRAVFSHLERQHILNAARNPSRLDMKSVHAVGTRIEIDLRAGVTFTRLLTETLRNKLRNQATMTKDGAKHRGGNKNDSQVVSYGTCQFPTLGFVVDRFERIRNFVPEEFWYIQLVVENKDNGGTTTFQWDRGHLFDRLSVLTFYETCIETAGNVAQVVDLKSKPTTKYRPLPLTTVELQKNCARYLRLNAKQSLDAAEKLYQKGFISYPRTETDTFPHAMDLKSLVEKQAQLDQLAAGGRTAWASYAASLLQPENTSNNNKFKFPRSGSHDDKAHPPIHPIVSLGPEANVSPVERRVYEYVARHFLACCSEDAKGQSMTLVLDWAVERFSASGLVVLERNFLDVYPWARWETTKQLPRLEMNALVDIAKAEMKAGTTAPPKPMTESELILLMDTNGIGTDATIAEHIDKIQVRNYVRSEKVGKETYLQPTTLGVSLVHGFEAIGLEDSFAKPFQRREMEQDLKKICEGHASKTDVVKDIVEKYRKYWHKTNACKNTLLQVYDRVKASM
T1 sequence (looked up) 2: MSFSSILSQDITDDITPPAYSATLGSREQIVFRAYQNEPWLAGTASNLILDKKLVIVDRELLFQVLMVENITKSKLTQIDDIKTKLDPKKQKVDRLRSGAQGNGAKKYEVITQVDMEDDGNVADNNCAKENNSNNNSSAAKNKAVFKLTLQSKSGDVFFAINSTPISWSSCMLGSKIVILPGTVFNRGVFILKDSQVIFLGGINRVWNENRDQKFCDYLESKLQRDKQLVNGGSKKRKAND

Top3/GST-Rmi1 complex = target: T2, Top3/GST-Rmi1 complex (S. cerevisiae, UniProt P13099 1-656; Q02685 1-241); assay: pull-down; competition: Top3/GST-Rmi1 (1 μM) on glutathione beads, Mer3-Strep 1 μM, His-Sgs1(1–107) 8 or 25 μM; 25 mM HEPES pH 7.5, 5% glycerol, 100 mM NaCl, 1 mM TCEP, 0.1% Tween-20; Coomassie
T2 construct: Top3 (type IA topoisomerase), S. cerevisiae, from SK1 strain genomic DNA; untagged; Rmi1, S. cerevisiae, from SK1 strain genomic DNA; also called GST-tagged Top3–Rmi1; GST-Rmi1/Top3; source: Hi5 insect cells (co-expressed from pBIG1a), purified (GSTrap, ResourceS, SEC); not shown: GST, N-terminal, kept
T2 sequence (looked up) 1: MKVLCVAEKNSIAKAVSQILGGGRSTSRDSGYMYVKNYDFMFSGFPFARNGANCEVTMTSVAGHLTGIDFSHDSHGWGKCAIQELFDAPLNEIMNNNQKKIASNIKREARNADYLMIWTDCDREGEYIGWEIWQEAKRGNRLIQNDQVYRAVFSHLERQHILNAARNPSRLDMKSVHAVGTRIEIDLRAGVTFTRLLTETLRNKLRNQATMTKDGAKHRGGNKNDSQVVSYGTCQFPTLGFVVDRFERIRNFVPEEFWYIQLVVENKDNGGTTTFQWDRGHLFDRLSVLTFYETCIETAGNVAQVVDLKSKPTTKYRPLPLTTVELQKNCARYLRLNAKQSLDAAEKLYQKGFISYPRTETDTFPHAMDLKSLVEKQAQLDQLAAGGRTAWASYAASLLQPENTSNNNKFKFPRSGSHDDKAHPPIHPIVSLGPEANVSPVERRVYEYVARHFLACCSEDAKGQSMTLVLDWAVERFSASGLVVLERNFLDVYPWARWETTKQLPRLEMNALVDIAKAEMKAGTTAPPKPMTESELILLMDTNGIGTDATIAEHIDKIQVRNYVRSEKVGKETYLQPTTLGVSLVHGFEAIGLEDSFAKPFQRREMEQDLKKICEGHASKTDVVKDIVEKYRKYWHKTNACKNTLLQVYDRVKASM
T2 sequence (looked up) 2: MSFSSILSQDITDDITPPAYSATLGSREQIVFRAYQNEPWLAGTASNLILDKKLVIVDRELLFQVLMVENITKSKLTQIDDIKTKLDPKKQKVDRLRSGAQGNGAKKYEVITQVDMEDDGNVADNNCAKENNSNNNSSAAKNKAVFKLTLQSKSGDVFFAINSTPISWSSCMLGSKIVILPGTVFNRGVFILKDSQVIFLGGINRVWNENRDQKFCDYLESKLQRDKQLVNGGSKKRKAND

[2] = target: T3, Mer3-Strep (full-length S. cerevisiae Mer3 with C-terminal 2xStrep-II tag) (S. cerevisiae, UniProt P51979 1-1187, phosphorylated in insect cells; high-confidence sites S17, S80, T100, S398, S958, T1092); assay: pull-down; Mer3-Strep (0.7 μM) on streptavidin magnetic beads, His-Dmc1 3.2 μM or Rad51 2.8 μM; 25 mM HEPES pH 7.5, 5% glycerol, 100 mM NaCl, 1 mM TCEP, 0.1% Tween-20; stained gel
T3 sequence (looked up): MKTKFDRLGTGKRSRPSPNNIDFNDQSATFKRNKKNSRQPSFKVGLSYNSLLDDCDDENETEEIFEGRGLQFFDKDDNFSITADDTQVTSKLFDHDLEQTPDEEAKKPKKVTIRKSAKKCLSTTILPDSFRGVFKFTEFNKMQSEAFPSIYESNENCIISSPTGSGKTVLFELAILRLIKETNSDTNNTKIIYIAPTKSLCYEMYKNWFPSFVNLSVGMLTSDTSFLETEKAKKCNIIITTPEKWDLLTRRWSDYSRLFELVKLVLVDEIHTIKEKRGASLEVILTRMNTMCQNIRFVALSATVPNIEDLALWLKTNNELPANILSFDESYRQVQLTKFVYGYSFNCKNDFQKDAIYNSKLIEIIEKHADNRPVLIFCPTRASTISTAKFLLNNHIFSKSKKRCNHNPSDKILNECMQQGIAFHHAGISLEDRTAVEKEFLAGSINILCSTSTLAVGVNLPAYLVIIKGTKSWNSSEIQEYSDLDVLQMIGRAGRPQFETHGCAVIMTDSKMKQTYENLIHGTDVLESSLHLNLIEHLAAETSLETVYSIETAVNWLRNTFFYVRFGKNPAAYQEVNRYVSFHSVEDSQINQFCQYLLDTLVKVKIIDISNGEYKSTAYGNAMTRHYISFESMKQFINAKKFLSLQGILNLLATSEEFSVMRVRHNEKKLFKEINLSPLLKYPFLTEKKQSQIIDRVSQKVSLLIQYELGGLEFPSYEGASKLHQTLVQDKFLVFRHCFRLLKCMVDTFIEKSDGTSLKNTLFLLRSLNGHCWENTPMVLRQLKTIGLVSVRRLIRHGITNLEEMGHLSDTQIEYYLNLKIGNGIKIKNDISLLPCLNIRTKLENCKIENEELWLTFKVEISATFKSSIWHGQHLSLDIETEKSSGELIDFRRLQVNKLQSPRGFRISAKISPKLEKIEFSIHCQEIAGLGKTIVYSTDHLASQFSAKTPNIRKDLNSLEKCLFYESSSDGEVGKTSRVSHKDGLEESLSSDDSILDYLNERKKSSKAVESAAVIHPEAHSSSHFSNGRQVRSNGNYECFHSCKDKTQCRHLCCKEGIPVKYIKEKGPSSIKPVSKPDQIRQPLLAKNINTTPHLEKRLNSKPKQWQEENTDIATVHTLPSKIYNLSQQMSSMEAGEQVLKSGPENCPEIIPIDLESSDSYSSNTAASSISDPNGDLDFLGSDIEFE

Kd [1]: 478 ± 205 nM
B1: Sgs1(1–605) (domain or fragment, S. cerevisiae, UniProt P35187 1-605, looked up)
chain: MVTKPSHNLRREHKWLKETATLQEDKDFVFQAIQKHIANKRPKTNSPPTTPSKDECGPGTTNFITSIPASGPTNTATKQHEVMQTLSNDTEWLSYTATSNQYADVPMVDIPASTSVVSNPRTPNGSKTHNFNTFRPHMASSLVENDSSRNLGSRNNNKSVIDNSSIGKQLENDIKLEVIRLQGSLIMALKEQSKLLLQKCSIIESTSLSEDAKRLQLSRDIRPQLSNMSIRIDSLEKEIIKAKKDGMSKDQSKGRSQVSSQDDNIISSILPSPLEYNTSSRNSNLTSTTATTVTKALAITGAKQNITNNTGKNSNNDSNNDDLIQVLDDEDDIDCDPPVILKEGAPHSPAFPHLHMTSEEQDELTRRRNMRSREPVNYRIPDRDDPFDYVMGKSLRDDYPDVEREEDELTMEAEDDAHSSYMTTRDEEKEENELLNQSDFDFVVNDDLDPTQDTDYHDNMDVSANIQESSQEGDTRSTITLSQNKNVQVILSSPTAQSVPSNGQNQIGVEHIDLLEDDLEKDAILDDSMSFSFGRQHMPMSHSDLELIDSEKENEDFEEDNNNNGIEYLSDSDLERFDEERENRTQVADIQELDNDLKIITERKL
notes: Sgs1 helicase, S. cerevisiae, from SK1 strain genomic DNA, residues 1-605; For MST the fragment was labelled with RED-NHS dye; also called untagged Sgs1(1–605); N-terminal fragment of Sgs1; source: E. coli BL21 STAR, purified (MBPtrap, ResourceQ, 3C cleavage, SEC); not shown: His6, N-terminal, cleaved; MBP, N-terminal, cleaved

binding result (Top3/GST-Rmi1 complex): binds
B2: His-tagged Sgs1(1–107) (domain or fragment, S. cerevisiae, UniProt P35187 1-107, looked up)
chain: MVTKPSHNLRREHKWLKETATLQEDKDFVFQAIQKHIANKRPKTNSPPTTPSKDECGPGTTNFITSIPASGPTNTATKQHEVMQTLSNDTEWLSYTATSNQYADVPM
notes: also called shorter fragment of Sgs1; source: E. coli BL21 STAR, purified (Ni-NTA, ResourceQ, SEC); not shown: His6, N-terminal, kept

binding result [2]: binds
B3: His-Dmc1 (natural protein, yeast, UniProt P25453 1-334, looked up)
chain: MSVTGTEIDSDTAKNILSVDELQNYGINASDLQKLKSGGIYTVNTVLSTTRRHLCKIKGLSEVKVEKIKEAAGKIIQVGFIPATVQLDIRQRVYSLSTGSKQLDSILGGGIMTMSITEVFGEFRCGKTQMSHTLCVTTQLPREMGGGEGKVAYIDTEGTFRPERIKQIAEGYELDPESCLANVSYARALNSEHQMELVEQLGEELSSGDYRLIVVDSIMANFRVDYCGRGELSERQQKLNQHLFKLNRLAEEFNVAVFLTNQVQSDPGASALFASADGRKPIGGHVLAHASATRILLRKGRGDERVAKLQDSPDMPEKECVYVIGEKGITDSSD
